From PMC12445078, “Structure-guided engineering of an aromatic ring-hydroxylating dioxygenase for broad-spectrum phthalate degradation” (Journal of Bacteriology, 2025) come the findings set out here.

Positions count from the first letter of the chain named. In names and notes the source's numbering stands.

The target in data set [1] is T1, IPDOKF1 (isophthalate dioxygenase, IPDO) (Comamonas testosteroni, UniProt B7WRK8).
T1 construct: gene CtesDRAFT_PD2139; 424 residues per protomer; ~50 kDa monomer, ~150 kDa trimer; primers encode N-terminus MNKEMSE and C-terminus PVFSL; Rieske [2Fe-2S]; C69/H71/C88/H91, Fe H177/H182/D337; assayed with separate reductase IPDRKF1
T1 sequence (B7WRK8 1-424): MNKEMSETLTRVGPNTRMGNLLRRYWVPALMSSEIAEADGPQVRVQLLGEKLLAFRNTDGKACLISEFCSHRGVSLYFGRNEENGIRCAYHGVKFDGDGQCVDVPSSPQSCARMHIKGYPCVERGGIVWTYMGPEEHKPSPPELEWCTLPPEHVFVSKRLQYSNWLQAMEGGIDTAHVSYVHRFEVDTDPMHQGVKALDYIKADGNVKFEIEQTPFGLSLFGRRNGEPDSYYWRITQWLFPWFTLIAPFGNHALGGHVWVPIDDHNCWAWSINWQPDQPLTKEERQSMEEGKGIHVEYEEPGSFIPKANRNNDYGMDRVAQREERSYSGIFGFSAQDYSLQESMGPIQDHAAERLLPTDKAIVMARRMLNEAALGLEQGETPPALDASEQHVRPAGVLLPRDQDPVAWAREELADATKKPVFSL
Description: X-ray co-crystal structure, […] Å. The data set is classed as binding. Particulars: co-crystallized with 5 mM isophthalate, 0.1 M Tris-HCl pH 7.0; active site near mononuclear iron.

Data set [2] concerns the target isophthalate dioxygenase from Comamonas testosteroni KF1 (IPDOKF1) (Comamonas testosteroni KF1). Nature of the data set: crystal structure; apo IPDOKF1 at 2.96 Å and isophthalate complex at 3.3 Å, space group P 2_(1) 3, one monomer per asymmetric unit; the trimer arises by the threefold axis.
Data set [3] has the same target. Nature of the data set: SEC; gel filtration on a Superdex 200 column; peaks at 62 mL (trimer, ~150 kDa) and 73 mL (monomer, ~50 kDa). On the technique in general: In gel filtration, larger molecules generally elute earlier.
Substrate in the data set “purified protein”: O=C(O)c1cccc(C(=O)O)c1
Nature of the data set: purified protein. Particulars: with reductase IPDRKF1, 1 mM NAD(P)H, 100 µM Fe(NH4)2(SO4)2, air-saturated 50 mM Tris, 25 °C, pH 7.5 in table footnote but pH 8.0 in methods.

Substrate in data set [4]: O=C(O)c1ccc(C(=O)O)cc1
Description: O2 consumption, Clark-type oxygen electrode. Format: biochemical, Comamonas testosteroni. Particulars: with reductase IPDRKF1, 1 mM NAD(P)H, 100 µM Fe(NH4)2(SO4)2, air-saturated 50 mM Tris, 25 °C, pH 7.5 in table footnote but pH 8.0 in methods.

Substrate in data set [5]: O=C(O)c1ccccc1C(=O)O
Description: O2 consumption, Clark-type oxygen electrode. Format: biochemical, Comamonas testosteroni. To be noted: with reductase IPDRKF1, 1 mM NAD(P)H, 100 µM Fe(NH4)2(SO4)2, air-saturated 50 mM Tris, 25 °C, pH 7.5 in table footnote but pH 8.0 in methods.

Consider `O=C(O)c1cccc(C(=O)O)c1` [IPA, isophthalate], for which, in data set [1], the “X-ray co-crystal structure, 3.3 Å” value is “co-crystallized IPDOKF1 with its substrate and determined the structure of the isophthalate-bound complex”.

In general, stoichiometry N refers to the number of molecules, sites or subunits per partner or assembly. On to “isophthalate dioxygenase from Comamonas testosteroni KF1 (IPDOKF1) (enzyme)”, for which the stoichiometry N in data set [2] and in data set [3] was 3 throughout.

B1: IPDOKF1 (isophthalate dioxygenase, IPDO) (Comamonas testosteroni KF-1) (protein)
chain: T1 sequence (B7WRK8 1-424)
As a reminder, the Km is the substrate concentration at which the rate is half of its maximum. Usually kcat stands for the number of substrate molecules converted per active site and unit of time at saturation. As a reminder, the kcat/Km is the turnover number divided by the Michaelis constant. Regarding B1, in “purified protein”, the Michaelis-Menten constant (Km) was 31 ± 7 µM, the turnover number (kcat) came out at 4.9 s⁻¹ and the kcat/Km turned out to be 160000 M⁻¹ s⁻¹.

B2: IPDOKF1 (isophthalate dioxygenase, IPDO) (Comamonas testosteroni KF-1; F249H/V178A) (protein)
chain: T1 sequence (B7WRK8 1-424) with V178A, F249H
notes: 424 residues per protomer; ~50 kDa monomer, ~150 kDa trimer; primers encode N-terminus MNKEMSE and C-terminus PVFSL; Rieske [2Fe-2S]; C69/H71/C88/H91, Fe H177/H182/D337; assayed with separate reductase IPDRKF1
Take B2: the Km is listed as 95 ± 11 µM in data set [4], 91 ± 16 µM in data set [5] and 32 ± 8 µM in “purified protein”. Also, the catalytic constant (kcat) worked out at 4.9 ± 0.2 s⁻¹ in data set [4], 4 ± 0.2 s⁻¹ in data set [5] and 4.8 s⁻¹ in “purified protein”. Also, the values for the catalytic efficiency (kcat/Km) (in data set [4]; in data set [5]; in the data set “purified protein”) were 51000 ± 6000 M⁻¹ s⁻¹, 44000 ± 8000 M⁻¹ s⁻¹ and 148000 M⁻¹ s⁻¹, respectively.
